Here are results for 2 substances from patent US20130071424A1.

Test [1] addresses AIDSVAX recombinant gp120 immunogen A244 (AIDSVAX subtype E) (HIV-1 subtype E (CRF01_AE) strain A244). The test can be described thus: ELISA, gp120 coated at 3 µg/ml, antibody titrated 0.002-10 µg/ml.
In test [2] the target is AIDSVAX recombinant gp120 immunogen MN (AIDSVAX subtype B) (HIV-1 subtype B strain MN) (UniProt P05877). Described as above.

With human anti-V2 monoclonal antibody 697-D, the half-maximal effective concentration (EC50) in test [1] amounted to 5.7 ng/mL; in test [2] it was 5.5 ng/mL.
With human anti-V2 monoclonal antibody 2158, the EC50 in test [1] came out at 4.1 ng/mL; in test [2] it was 3.9 ng/mL.
